# From the supplement of paper PMC10567573
# B1: HSP90AB1 (parent)
# chain: YHTSQSGDEMTSLSEYVSRMKETQ
# Variants of: B1
# Test: protein stability index of a GFP-peptide fusion (GPS, HEK-293T) (PSI 1-6); higher = more stable
# Settings: c terminus: a fixed tail appended
# 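Note: lentivirally expressed fusions sorted by FACS into six bins by GFP to DsRed ratio, PSI derived from sequencing read proportions per bin multiplied by bin number.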
row,Variant,protein stability index
1,YHTSQSGDEMTSLSERVSRMKETQ [Y16R],3.98
2,YHTSQSGDEMTSLSEPVSRMKETQ [Y16P],4.02
3,YHTSQSGDEMTSLSEMVSRMKETQ [Y16M],4.16
4,YHTSQSGDEMTSLSEYVSDMKETQ [R19D],4.41
5,YHTSQSGDEMTSLSEYVSEMKETQ [R19E],4.66
6,YHTSQSGDEMTSLSEYVSYMKETQ [R19Y],3.7
7,YHTSQSGDEMTSLSEYVSWMKETQ [R19W],3.46
8,YHTSQSGDEMTSLSEYVSAMKETQ [R19A],3.72
9,YHTSQSGDEMTSLSEYVSIMKETQ [R19I],3.66
10,YHTSQSGDEMTSLSEYVSFMKETQ [R19F],3.15
11,YHTSQSGDEMTSLSEYVSKMKETQ [R19K],4.27
12,YHTSQSGDEMTSLSEYVSHMKETQ [R19H],3.68
13,YHTSQSGDEMTSLSEYVSTMKETQ [R19T],4.18
14,YHTSQSGDEMTSLSEYVSLMKETQ [R19L],3.22
15,YHTSQSGDEMTSLSEYVSNMKETQ [R19N],4.32
16,YHTSQSGDEMTSLSEYVSVMKETQ [R19V],3.67
17,YHTSQSGDEMTSLSEYVSGMKETQ [R19G],4.09
18,YHTSQSGDEMTSLSEYVSMMKETQ [R19M],3.89
19,YHTSQSGDEMTSLSEYVSPMKETQ [R19P],3.47
20,YHTSQSGDEMTSLSEYVSSMKETQ [R19S],3.8
21,YHTSQSGDEMTSLSEYVSQMKETQ [R19Q],4.15
22,YHTSQSGDEMTSLSEYVSRMKEHQ [T23H],3.59
23,YHTSQSGDEMTSLSEYVSRMKEVQ [T23V],4.14
24,YHTSQSGDEMTSLSEYVSRMKEAQ [T23A],3.81

row,Variant,protein stability index
1,YHTSQSGDEMTSLSEYVSRMKEKQ [T23K],3.78
2,YHTSQSGDEMTSLSEYVSRMKEWQ [T23W],2.79
3,YHTSQSGDEMTSLSEYVSRMKENQ [T23N],3.88
4,YHTSQSGDEMTSLSEYVSRMKESQ [T23S],3.5
5,YHTSQSGDEMTSLSEYVSRMKEEQ [T23E],2.89
6,YHTSQSGDEMTSLSEYVSRMKEMQ [T23M],3.29
7,YHTSQSGDEMTSLSEYVSRMKEIQ [T23I],3.63
8,YHTSQSGDEMTSLSEYVSRMKELQ [T23L],3.57
9,YHTSQSGDEMTSLSEYVSRMKECQ [T23C],3.23
10,YHTSQSGDEMTSLSEYVSRMKEYQ [T23Y],3.16
11,YHTSQSGDEMTSLSEYVSRMKEQQ [T23Q],3.9
12,YHTSQSGDEMTSLSEYVSRMKEGQ [T23G],4.12
13,YHTSQSGDEMTSLSEYVSRMKEPQ [T23P],3.33
14,YHTSQSGDEMTSLSEYVSRMKERQ [T23R],3.76
15,YHTSQSGDEMTSLSEYVSRMKEDQ [T23D],4.52
16,YHTSQSGDEMTSLSEYVSRMVETQ [K21V],3.58
17,YHTSQSGDEMTSLSEYVSRMDETQ [K21D],4.08
18,YHTSQSGDEMTSLSEYVSRMPETQ [K21P],3.63
19,YHTSQSGDEMTSLSEYVSRMLETQ [K21L],3.52
20,YHTSQSGDEMTSLSEYVSRMRETQ [K21R],3.29
21,YHTSQSGDEMTSLSEYVSRMEETQ [K21E],4.2
22,YHTSQSGDEMTSLSEYVSRMAETQ [K21A],3.71
23,YHTSQSGDEMTSLSEYVSRMFETQ [K21F],2.84
24,YHTSQSGDEMTSLSEYVSRMNETQ [K21N],3.88

row,Variant,protein stability index
1,YHTSQSGDEMTSLSEYVSRMSETQ [K21S],3.35
2,YHTSQSGDEMTSLSEYVSRMGETQ [K21G],3.84
3,YHTSQSGDEMTSLSEYVSRMQETQ [K21Q],3.32
4,YHTSQSGDEMTSLSEYVSRMHETQ [K21H],3.52
5,YHTSQSGDEMTSLSEYVSRMMETQ [K21M],3.13
6,YHTSQSGDEMTSLSEYVSRMTETQ [K21T],3.42
7,YHTSQSGDEMTSLSEYVSRMYETQ [K21Y],2.61
8,YHTSQSGDEMTSLSEYVSRMWETQ [K21W],2.64
9,YHTSQSGDEMTSLSEYVSRMCETQ [K21C],3.47
10,YHTSQSGDEMTSLSEYVSRSKETQ [M20S],3.73
11,YHTSQSGDEMTSLSEYVSRPKETQ [M20P],4.44
12,YHTSQSGDEMTSLSEYVSRKKETQ [M20K],4.11
13,YHTSQSGDEMTSLSEYVSRIKETQ [M20I],3.29
14,YHTSQSGDEMTSLSEYVSRYKETQ [M20Y],3.55
15,YHTSQSGDEMTSLSEYVSRAKETQ [M20A],4.62
16,YHTSQSGDEMTSLSEYVSREKETQ [M20E],3.73
17,YHTSQSGDEMTSLSEYVSRTKETQ [M20T],4.27
18,YHTSQSGDEMTSLSEYVSRVKETQ [M20V],3.92
19,YHTSQSGDEMTSLSEYVSRDKETQ [M20D],4.46
20,YHTSQSGDEMTSLSEYVSRCKETQ [M20C],3.81
21,YHTSQSGDEMTSLSEYVSRHKETQ [M20H],4.16
22,YHTSQSGDEMTSLSEYVSRLKETQ [M20L],3.42
23,YHTSQSGDEMTSLSEYVSRQKETQ [M20Q],4.13
24,YHTSQSGDEMTSLSEYVSRNKETQ [M20N],4.1

row,Variant,protein stability index
1,YHTSQSGDEMTSLSEYVSRGKETQ [M20G],4.37
2,YHTSQSGDEMTSLSEYVSRWKETQ [M20W],2.47
3,YHTSQSGDEMTSLSEYVSRFKETQ [M20F],2.89
4,YHTSQSGDEMTSLSEYVSRRKETQ [M20R],4.26
5,YHTSQSGDEMTSLSEYVIRMKETQ [S18I],3
6,YHTSQSGDEMTSLSEYVLRMKETQ [S18L],2.74
7,YHTSQSGDEMTSLSEYVCRMKETQ [S18C],2.87
8,YHTSQSGDEMTSLSEYVDRMKETQ [S18D],4
9,YHTSQSGDEMTSLSEYVYRMKETQ [S18Y],2.56
10,YHTSQSGDEMTSLSEYVARMKETQ [S18A],3.72
11,YHTSQSGDEMTSLSEYVKRMKETQ [S18K],3.53
12,YHTSQSGDEMTSLSEYVTRMKETQ [S18T],3.81
13,YHTSQSGDEMTSLSEYVQRMKETQ [S18Q],3.66
14,YHTSQSGDEMTSLSEYVVRMKETQ [S18V],3.23
15,YHTSQSGDEMTSLSEYVPRMKETQ [S18P],3.92
16,YHTSQSGDEMTSLSEYVWRMKETQ [S18W],1.77
17,YHTSQSGDEMTSLSEYVMRMKETQ [S18M],3.41
18,YHTSQSGDEMTSLSEYVRRMKETQ [S18R],3.6
19,YHTSQSGDEMTSLSEYVNRMKETQ [S18N],3.31
20,YHTSQSGDEMTSLSEYVHRMKETQ [S18H],3.35
21,YHTSQSGDEMTSLSEYVGRMKETQ [S18G],3.36
22,YHTSQSGDEMTSLSEYVERMKETQ [S18E],3.8
